From paper PMC4432644, “Molecular mechanism for USP7-mediated DNMT1 stabilization by acetylation” (Nature Communications, 2015)
One block for each binder: values may come before it.

Columns and labels:
Conditions in all cases: both partners purified
[1] = target: T1, DNMT1^2KR (recombinant, residues 600–1,600) (human, UniProt P26358 600-1600, K1111 to Arginine | K1113 to Arginine); assay: pull-down; GST–USP7 proteins incubated with DNMT1 proteins 2 h at 4 °C in 25 mM HEPES pH 7.4, 150 mM NaCl, 5% glycerol, 0.05% Triton X-100, 1 mM DTT, then held on glutathione resin; SDS–PAGE, Coomassie
T1 construct: human DNMT1, residues 600-1,600 (DNMT1 if not specified); source: E. coli Rosetta (DE3), purified

[2] = target: T2, DNMT1^2KQ (recombinant, residues 600–1,600) (human, UniProt P26358 600-1600, K1111 to Glutamine | K1113 to Glutamine); assay: as above
T2 construct: human DNMT1, residues 600-1,600 (DNMT1 if not specified); source: E. coli Rosetta (DE3), purified

[3] = target: T3, DNMT1^4KR (recombinant, residues 600–1,600) (human, UniProt P26358 600-1600, K1111 to Arginine | K1113 to Arginine | K1115 to Arginine | K1117 to Arginine); assay: as above
T3 construct: human DNMT1, residues 600-1,600 (DNMT1 if not specified); source: E. coli Rosetta (DE3), purified

[4] = target: T4, DNMT1 (residues 600–1,600) (human, UniProt P26358 600-1600); assay: ITC; 0.05 mM DNMT1 (600–1,600) titrated with 0.5 mM USP7 (560–1,102); iTC200; 18 °C; 10 mM HEPES pH 8.0, 300 mM NaCl
T4 construct: human DNMT1, residues 600-1,600; Modified pET-28a plasmid; also called WT DNMT1 (residues 600–1,600); source: E. coli Rosetta (DE3), purified (Ni-NTA, on-column cleavage, anion exchange, SEC)

[5] = target: T4, DNMT1 (residues 600–1,600); assay: pull-down; GST–USP7 proteins incubated with DNMT1 proteins 2 h at 4 °C in 25 mM HEPES pH 7.4, 150 mM NaCl, 5% glycerol, 0.05% Triton X-100, 1 mM DTT, then held on glutathione resin; SDS–PAGE, Coomassie

T4 sequence (P26358 600-1600): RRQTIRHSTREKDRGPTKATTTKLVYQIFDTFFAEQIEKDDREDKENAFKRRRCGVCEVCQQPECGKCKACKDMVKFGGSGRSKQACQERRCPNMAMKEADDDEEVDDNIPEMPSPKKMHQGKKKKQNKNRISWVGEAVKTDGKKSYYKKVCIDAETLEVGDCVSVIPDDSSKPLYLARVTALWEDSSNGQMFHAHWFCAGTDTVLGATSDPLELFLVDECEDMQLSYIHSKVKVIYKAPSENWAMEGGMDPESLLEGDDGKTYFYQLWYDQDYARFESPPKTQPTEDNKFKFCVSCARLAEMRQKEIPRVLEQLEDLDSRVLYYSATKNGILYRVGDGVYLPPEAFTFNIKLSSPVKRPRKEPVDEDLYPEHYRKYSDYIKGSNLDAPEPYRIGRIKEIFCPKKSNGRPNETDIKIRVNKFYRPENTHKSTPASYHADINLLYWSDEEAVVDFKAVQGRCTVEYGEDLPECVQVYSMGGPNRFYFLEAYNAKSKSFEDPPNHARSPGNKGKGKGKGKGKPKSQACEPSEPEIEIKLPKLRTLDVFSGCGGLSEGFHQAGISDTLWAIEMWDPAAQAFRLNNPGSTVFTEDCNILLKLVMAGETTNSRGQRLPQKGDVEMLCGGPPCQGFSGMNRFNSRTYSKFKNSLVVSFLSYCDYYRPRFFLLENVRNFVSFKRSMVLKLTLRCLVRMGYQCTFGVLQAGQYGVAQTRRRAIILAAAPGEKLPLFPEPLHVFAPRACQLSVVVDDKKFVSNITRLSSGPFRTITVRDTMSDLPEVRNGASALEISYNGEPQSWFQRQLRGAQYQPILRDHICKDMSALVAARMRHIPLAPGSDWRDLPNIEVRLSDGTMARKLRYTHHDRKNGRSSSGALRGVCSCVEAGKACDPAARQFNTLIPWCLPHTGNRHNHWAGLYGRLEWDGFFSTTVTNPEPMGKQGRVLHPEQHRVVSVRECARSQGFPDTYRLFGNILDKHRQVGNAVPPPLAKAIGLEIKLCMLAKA
T3 sequence (P26358 other isoform, or with tags, fused parts or gaps with the stated changes): as the sequence (P26358 600-1600) above, with K512R, K514R, K516R, K518R counted along it
T2 sequence (P26358 other isoform, or with tags, fused parts or gaps with the stated changes): as the sequence (P26358 600-1600) above, with K512Q, K514Q counted along it
T1 sequence (P26358 other isoform, or with tags, fused parts or gaps with the stated changes): as the sequence (P26358 600-1600) above, with K512R, K514R counted along it

binding result [1]: binds
binding result [2]: binds
binding result [3]: binds
B1: GST–TUD^USP7 (tandem UBL domains of USP7, residues 560–1,102) (domain or fragment, human, UniProt Q93009 560-1102, looked up)
chain: EAHLYMQVQIVAEDQFCGHQGNDMYDEEKVKYTVFKVLKNSSLAEFVQSLSQTMGFPQDQIRLWPMQARSNGTKRPAMLDNEADGNKTMIELSDNENPWTIFLETVDPELAASGATLPKFDKDHDVMLFLKMYDPKTRSLNYCGHIYTPISCKIRDLLPVMCDRAGFIQDTSLILYEEVKPNLTERIQDYDVSLDKALDELMDGDIIVFQKDDPENDNSELPTAKEYFRDLYHRVDVIFCDKTIPNDPGFVVTLSNRMNYFQVAKTVAQRLNTDPMLLQFFKSQGYRDGPGNPLRHNYEGTLRDLLQFFKPRQPKKLYYQQLKMKITDFENRRSFKCIWLNSQFREEEITLYPDKHGCVRDLLEECKKAVELGEKASGKLRLLEIVSYKIIGVHQEDELLECLSPATSRTFRIEEIPLDQVDIDKENEMLVTVAHFHKEVFGTFGIPFLLRIHQGEHFREVMKRIQSLLDIQEKEFEKFKFAIVMMGRHQYINEDEYEVNLKDFEPQPGNMSHPRPWLGLDHFNKAPKRSRYTYLEKAIKIHN
notes: Modified pGEX-6P-1 plasmid; also called GST–USP7 (truncation); wild-type GST–TUD^USP7; source: E. coli BL21(DE3), purified

Kd [4]: 0.6 µM
B2: USP7 (residues 560–1,102), tag removed (domain or fragment, human, UniProt Q93009 560-1102, looked up)
chain: EAHLYMQVQIVAEDQFCGHQGNDMYDEEKVKYTVFKVLKNSSLAEFVQSLSQTMGFPQDQIRLWPMQARSNGTKRPAMLDNEADGNKTMIELSDNENPWTIFLETVDPELAASGATLPKFDKDHDVMLFLKMYDPKTRSLNYCGHIYTPISCKIRDLLPVMCDRAGFIQDTSLILYEEVKPNLTERIQDYDVSLDKALDELMDGDIIVFQKDDPENDNSELPTAKEYFRDLYHRVDVIFCDKTIPNDPGFVVTLSNRMNYFQVAKTVAQRLNTDPMLLQFFKSQGYRDGPGNPLRHNYEGTLRDLLQFFKPRQPKKLYYQQLKMKITDFENRRSFKCIWLNSQFREEEITLYPDKHGCVRDLLEECKKAVELGEKASGKLRLLEIVSYKIIGVHQEDELLECLSPATSRTFRIEEIPLDQVDIDKENEMLVTVAHFHKEVFGTFGIPFLLRIHQGEHFREVMKRIQSLLDIQEKEFEKFKFAIVMMGRHQYINEDEYEVNLKDFEPQPGNMSHPRPWLGLDHFNKAPKRSRYTYLEKAIKIHN
notes: The methods name a modified pGEX-6P-1 plasmid but a Ni-NTA purification with on-column cleavage; also called TUD^USP7; source: E. coli BL21(DE3), purified (Ni-NTA, on-column cleavage, anion exchange, SEC)

binding result [5]: binds
B3: GST–TUD^USP7 D762A (domain or fragment, human, UniProt Q93009 560-1102, looked up)
chain: EAHLYMQVQIVAEDQFCGHQGNDMYDEEKVKYTVFKVLKNSSLAEFVQSLSQTMGFPQDQIRLWPMQARSNGTKRPAMLDNEADGNKTMIELSDNENPWTIFLETVDPELAASGATLPKFDKDHDVMLFLKMYDPKTRSLNYCGHIYTPISCKIRDLLPVMCDRAGFIQDTSLILYEEVKPNLTERIQDYDVSLDKALDELMAGDIIVFQKDDPENDNSELPTAKEYFRDLYHRVDVIFCDKTIPNDPGFVVTLSNRMNYFQVAKTVAQRLNTDPMLLQFFKSQGYRDGPGNPLRHNYEGTLRDLLQFFKPRQPKKLYYQQLKMKITDFENRRSFKCIWLNSQFREEEITLYPDKHGCVRDLLEECKKAVELGEKASGKLRLLEIVSYKIIGVHQEDELLECLSPATSRTFRIEEIPLDQVDIDKENEMLVTVAHFHKEVFGTFGIPFLLRIHQGEHFREVMKRIQSLLDIQEKEFEKFKFAIVMMGRHQYINEDEYEVNLKDFEPQPGNMSHPRPWLGLDHFNKAPKRSRYTYLEKAIKIHN
notes: also called D762A^USP7; source: E. coli BL21(DE3), purified

binding result [5]: binds
B4: GST–TUD^USP7 E744A (domain or fragment, human, UniProt Q93009 560-1102, looked up)
chain: EAHLYMQVQIVAEDQFCGHQGNDMYDEEKVKYTVFKVLKNSSLAEFVQSLSQTMGFPQDQIRLWPMQARSNGTKRPAMLDNEADGNKTMIELSDNENPWTIFLETVDPELAASGATLPKFDKDHDVMLFLKMYDPKTRSLNYCGHIYTPISCKIRDLLPVMCDRAGFIQDTSLILYEEVKPNLTARIQDYDVSLDKALDELMDGDIIVFQKDDPENDNSELPTAKEYFRDLYHRVDVIFCDKTIPNDPGFVVTLSNRMNYFQVAKTVAQRLNTDPMLLQFFKSQGYRDGPGNPLRHNYEGTLRDLLQFFKPRQPKKLYYQQLKMKITDFENRRSFKCIWLNSQFREEEITLYPDKHGCVRDLLEECKKAVELGEKASGKLRLLEIVSYKIIGVHQEDELLECLSPATSRTFRIEEIPLDQVDIDKENEMLVTVAHFHKEVFGTFGIPFLLRIHQGEHFREVMKRIQSLLDIQEKEFEKFKFAIVMMGRHQYINEDEYEVNLKDFEPQPGNMSHPRPWLGLDHFNKAPKRSRYTYLEKAIKIHN
notes: also called E744A^USP7; source: E. coli BL21(DE3), purified
